Literature values, collected in publication PMC9542338.
pKd: −log10 of the molar value. Where two headings read alike, the source gives them in different places.

Experiments:
CD155 (Homo sapiens) [1] = molecular target: CD155 (Homo sapiens) (UniProt P15151)
CD155 (Homo sapiens) [2] = molecular target: CD155 (Homo sapiens) (UniProt P15151); remark: listed apart in the source

pKd (CD155 (Homo sapiens) [1]) | pKd (CD155 (Homo sapiens) [2]) | Substance
6.94 |  | CD226 (from UniProt Q15762)
 | 8.70 | TIGIT (from UniProt Q495A1)
